# Target: the molecule itself
# Experiment: cross-linking
protein,measurement,value
"MRCKβ in extracts from HeLa cells (enzyme, UniProt Q9Y5S2 1-1711, looked up) MSAKVRLKKLEQLLLDGPWRNESALSVETLLDVLVCLYTECSHSALRRDKYVAEFLEWAKPFTQLVKEMQLHREDFEIIKVIGRGAFGEVAVVKMKNTERIYAMKILNKWEMLKRAETACFREERDVLVNGDCQWITALHYAFQDENHLYLVMDYYVGGDLLTLLSKFEDKLPEDMARFYIGEMVLAIDSIHQLHYVHRDIKPDNVLLDVNGHIRLADFGSCLKMNDDGTVQSSVAVGTPDYISPEILQAMEDGMGKYGPECDWWSLGVCMYEMLYGETPFYAESLVETYGKIMNHEERFQFPSHVTDVSEEAKDLIQRLICSRERRLGQNGIEDFKKHAFFEGLNWENIRNLEAPYIPDVSSPSDTSNFDVDDDVLRNTEILPPGSHTGFSGLHLPFIGFTFTTESCFSDRGSLKSIMQSNTLTKDEDVQRDLEHSLQMEAYERRIRRLEQEKLELSRKLQESTQTVQSLHGSSRALSNSNRDKEIKKLNEEIERLKNKIADSNRLERQLEDTVALRQEREDSTQRLRGLEKQHRVVRQEKEELHKQLVEASERLKSQAKELKDAHQQRKLALQEFSELNERMAELRAQKQKVSRQLRDKEEEMEVATQKVDAMRQEMRRAEKLRKELEAQLDDAVAEASKERKLREHSENFCKQMESELEALKVKQGGRGAGATLEHQQEISKIKSELEKKVLFYEEELVRREASHVLEVKNVKKEVHDSESHQLALQKEILMLKDKLEKSKRERHNEMEEAVGTIKDKYERERAMLFDENKKLTAENEKLCSFVDKLTAQNRQLEDELQDLAAKKESVAHWEAQIAEIIQWVSDEKDARGYLQALASKMTEELEALRSSSLGSRTLDPLWKVRRSQKLDMSARLELQSALEAEIRAKQLVQEELRKVKDANLTLESKLKDSEAKNRELLEEMEILKKKMEEKFRADTGLKLPDFQDSIFEYFNTAPLAHDLTFRTSSASEQETQAPKPEASPSMSVAASEQQEDMARPPQRPSAVPLPTTQALALAGPKPKAHQFSIKSFSSPTQCSHCTSLMVGLIRQGYACEVCSFACHVSCKDGAPQVCPIPPEQSKRPLGVDVQRGIGTAYKGHVKVPKPTGVKKGWQRAYAVVCDCKLFLYDLPEGKSTQPGVIASQVLDLRDDEFSVSSVLASDVIHATRRDIPCIFRVTASLLGAPSKTSSLLILTENENEKRKWVGILEGLQSILHKNRLRNQVVHVPLEAYDSSLPLIKAILTAAIVDADRIAVGLEEGLYVIEVTRDVIVRAADCKKVHQIELAPREKIVILLCGRNHHVHLYPWSSLDGAEGSFDIKLPETKGCQLMATATLKRNSGTCLFVAVKRLILCYEIQRTKPFHRKFNEIVAPGSVQCLAVLRDRLCVGYPSGFCLLSIQGDGQPLNLVNPNDPSLAFLSQQSFDALCAVELESEEYLLCFSHMGLYVDPQGRRARAQELMWPAAPVACSCSPTHVTVYSEYGVDVFDVRTMEWVQTIGLRRIRPLNSEGTLNLLNCEPPRLIYFKSKFSGAVLNVPDTSDNSKKQMLRTRSKRRFVFKVPEEERLQQRREMLRDPELRSKMISNPTNFNHVAHMGPGDGMQVLMDLPLSAVPPSQEERPGPAPTNLARQPPSRNKPYISWPSSGGSEPSVTVPLRSMSDPDQDFDKEPDSDSTKHSTPSNSSNPSGPPSPNSPHRSQLPLEGLEQPACDT",stoichiometry N,2

# From publication PMC8191314 (The Journal of Biological Chemistry, 2021)
